Assay results: paper PMC8740826 (Protein Science : A Publication of the Protein Society, 2021)
Read-outs that look alike come from different tables or passages of the source.

B1: β-amylase from sweet potato (enzyme)
chain: APIPGVMPIGNYVSLYVMLPLGVVNADNVFPDKEKVEDELKQVKAGGCDGVMVDVWWGIIEAKGPKQYDWSAYRELFQLVKKCGLKIQAIMSFHQCGGNVGDAVFIPIPQWILQIGDKNPDIFYTNRAGNRNQEYLSLGVDNQRLFQGRTALEMYRDFMESFRDNMADFLKAGDIVDIEVGCGAAGELRYPSYPETQGWVFPGIGEFQCYDKYMVADWKEAVKQAGNADWEMPGKGAGTYNDTPDKTEFFRPNGTYKTDMGKFFLTWYSNKLIIHGDQVLEEANKVFVGLRVNIAAKVSGIHWWYNHVSHAAELTAGFYNVAGRDGYRPIARMLARHHATLNFTCLEMRDSEQPAEAKSAPQELVQQVLSSGWKEYIDVAGENALPRYDATAYNQMLLNVRPNGVNLNGPPKLKMSGLTYLRLSDDLLQTDNFELFKKFVKKMHADLDPSPNAISPAVLERSNSAITIDELMEATKGSRPFPWYDVTDMPVDGSNPFD
B2: glucose isomerase from Streptomyces rubiginosus (enzyme)
chain: not shown

Columns and labels:
[1] = target: the molecule itself; assay: SEC-SAXS
[2] = target: the molecule itself; assay: SEC-SAXS; remark: listed apart in the source

Protein | stoichiometry N [1] | stoichiometry N [2]
B1 | 4 | –
B2 | – | 4
